# Changes are numbered by the printed parent chain. “And” between values parts separate entries of the source, which are not always exact repeats. Identical values can stand only once. Like-named read-outs stand apart in the source and are kept apart here.
# B1: Antibody 12 (antibody, V domains shown)
# VH: QVQLQQSGPGLVKPSQTLSLTCAISGDSVSSYNAVWNWIRQSPSRGLEWLGRTYYRSGWYNDYAESVKSRITINPDTSKNQFSLQLNSVTPEDTAVYYCARSGHITVFGVNVDAFDMWGQGTMVTVSS
# VL: DIQMTQSPSSLSASVGDRVTITCRTSQSLSSYTHWYQQKPGKAPKLLIYAASSRGSGVPSRFSGSGSGTDFTLTISSLQPEDFATYYCQQSRTFGQGTKVEIK
# B2: Antibody 14 (antibody, V domains shown)
# VH: B1 VH with Y32N, G58K, M123T
# VL: B1 VL with G55L
# B3: Antibody 8 (antibody, V domains shown)
# VH: QVQLQQSGPGLVKPSQTLSLTCVISGDTVSSNRATWNWMRQSPLRGLEWLGRTYYRSKWYNDYAVSVKSRVVINPDTSKNQVSLQLNTVTPDDSGVYFCARGGHITVFGVNIDAFDIWGLGTKVTVSS
# VL: DIQMTQSPSSLSASVGDRVTISCRASQRLNSYLHWYQQTPGQAPKLLIYATSTLQSGVSPRFSGSGSGTDFTLTISSLQPEDVATYYCQLSRTFGHGTKVEIK
# Assays:
# Assay in all cases: cell-based or functional assay
# [1] = molecular target: HA of ca A/Beijing/262/95 (H1N1) (influenza A virus)
# [2] = molecular target: HA of A/Victoria/3/75 (H3N2) (influenza A virus)
# [3] = molecular target: HA of virus H1-BS10
# [4] = molecular target: HA of ca A/Sydney/5/97 (H3N2) (influenza A virus)
# [5] = molecular target: HA of A/Fort Monmouth/1/47 (H1N1) (influenza A virus)
# [6] = molecular target: HA of ca A/teal/Hong Kong/W312/97 (H6N1) (influenza A virus)
# [7] = molecular target: HA of A/Victoria/361/11 (H3N2) (influenza A virus)
# [8] = molecular target: HA of ca A/New Caledonia/20/99 (H1N1) (influenza A virus)
# [9] = molecular target: HA of A/Kawasaki/9/86 (H1N1) (influenza A virus)
# [10] = molecular target: T1, HA of ca A/chicken/Hong Kong/G9/97 (H9N2) (influenza A virus)
# [11] = molecular target: HA of ca A/Japan/57 (H2N2) (influenza A virus)
# [12] = molecular target: HA of A/Hong Kong/8/68 (H3N2) (influenza A virus)
# [13] = molecular target: HA of ca A/Hong Kong/213/03 (H5N1) (influenza A virus)
# [14] = molecular target: HA of ca A/Texas/36/91 (H1N1) (influenza A virus)
# [15] = molecular target: T2, HA of ca A/Brit. Columbia/CN-6/04 (H7N3-LP) (influenza A virus)
# [16] = molecular target: HA of ca A/swine/Missouri/06 (H2N3) (influenza A virus)
# [17] = molecular target: HA of ca A/Anhui/1/13 (H7N9) (influenza A virus)
# [18] = molecular target: HA of ca A/Vietnam/1203/04 (H5N1) (influenza A virus)
# [19] = molecular target: HA of ca A/Netherlands/219/03 (H7N7) (influenza A virus)
# [20] = molecular target: HA of ca A/Perth/16/09 (H3N2) (influenza A virus)
# [21] = molecular target: HA of ca A/mallard/Alberta/89/85 (H6N2) (influenza A virus)
# [22] = molecular target: HA of A/New Jersey/8/76 (H1N1) (influenza A virus)
# [23] = molecular target: HA of swine-origin A/Minnesota/11/2010 H3N2 virus (influenza A virus)
# [24] = molecular target: HA of ca A/Panama/2007/99 (H3N2) (influenza A virus)
# [25] = molecular target: HA of A/Wisconsin/67/05 (H3N2) (influenza A virus)
# [26] = molecular target: HA of ca A/Beijing/262/95 (H1N1) (influenza A virus); remark: listed apart in the source
# [27] = molecular target: HA of A/Victoria/3/75 (H3N2) (influenza A virus); remark: listed apart in the source
# [28] = molecular target: HA of ca A/Sydney/5/97 (H3N2) (influenza A virus); remark: listed apart in the source
# [29] = molecular target: HA of ca A/Panama/2007/99 (H3N2) (influenza A virus); remark: listed apart in the source
# [30] = molecular target: HA of A/Fort Monmouth/1/47 (H1N1) (influenza A virus); remark: listed apart in the source
# [31] = molecular target: HA of ca A/teal/Hong Kong/W312/97 (H6N1) (influenza A virus); remark: listed apart in the source
# [32] = molecular target: HA of ca A/New Caledonia/20/99 (H1N1) (influenza A virus); remark: listed apart in the source
# [33] = molecular target: HA of A/Wisconsin/67/05 (H3N2) (influenza A virus); remark: listed apart in the source
# [34] = molecular target: HA of A/Kawasaki/9/86 (H1N1) (influenza A virus); remark: listed apart in the source
# [35] = molecular target: T1, HA of ca A/chicken/Hong Kong/G9/97 …; remark: listed apart in the source
# [36] = molecular target: HA of A/Hong Kong/8/68 (H3N2) (influenza A virus); remark: listed apart in the source
# [37] = molecular target: HA of ca A/Hong Kong/213/03 (H5N1) (influenza A virus); remark: listed apart in the source
# [38] = molecular target: HA of ca A/Texas/36/91 (H1N1) (influenza A virus); remark: listed apart in the source
# [39] = molecular target: T2, HA of ca A/Brit. Columbia/CN-6/04 …; remark: listed apart in the source
# [40] = molecular target: HA of ca A/swine/Missouri/06 (H2N3) (influenza A virus); remark: listed apart in the source
# [41] = molecular target: HA of ca A/Vietnam/1203/04 (H5N1) (influenza A virus); remark: listed apart in the source
# [42] = molecular target: HA of ca A/Netherlands/219/03 (H7N7) (influenza A virus); remark: listed apart in the source
# [43] = molecular target: HA of ca A/Perth/16/09 (H3N2) (influenza A virus); remark: listed apart in the source
# [44] = molecular target: HA of A/Wyoming/03/03 (H3N2) (influenza A virus)
# [45] = molecular target: HA of A/New Jersey/8/76 (H1N1) (influenza A virus); remark: listed apart in the source
Binder,"Neutralization IC50, H1-BJ95 [1] [mg/L]","Neutralization IC50, H3-Vic75 [2] [mg/L]","Neutralization IC50, H1-BS10 [3] [mg/L]","Neutralization IC50, H3-Syd97 [4] [mg/L]","Neutralization IC50, H1-FM47 [5] [mg/L]","Neutralization IC50, H6-HK97 [6] [mg/L]","Neutralization IC50, H3-VC11 [7] [mg/L]","Neutralization IC50, H1-Ncal99 [8] [mg/L]","Neutralization IC50, H1-Kaw86 [9] [mg/L]","Neutralization IC50, H9-HK97 [10] [mg/L]","Neutralization IC50, H2-JP57 [11] [mg/L]","Neutralization IC50, H3-HK68 [12] [mg/L]","Neutralization IC50, H5-HK03 [13] [mg/L]","Neutralization IC50, H1-TX91 [14] [mg/L]","Neutralization IC50, H7-BC04 [15] [mg/L]","Neutralization IC50, H2-MO06 [16] [mg/L]","Neutralization IC50, H7-ANU13 [17] [mg/L]","Neutralization IC50, H5-VM04 [18] [mg/L]","Neutralization IC50, H7-NLD03 [19] [mg/L]","Neutralization IC50, H3-Perth09 [20] [mg/L]",also measured
B1,1.31,0.32,1.25,1.56,0.28,0.45,0.83,0.61,0.28,0.31,0.35,0.42,0.17,0.12,0.78,0.53,2.56,0.31,0.83,0.25,"Neutralization IC50, H6-AB85 [21]: 0.32 mg/L; Neutralization IC50, H1-NJ76 [22]: 0.12 mg/L; Neutralizing activity IC50, swine-origin A/Minnesota/11/2010 [23]: 1.1 mg/L and 1.2 mg/L"
B2,2.09,0.44,1.93,1.82,0.44,0.26,1.15,0.67,0.35,0.44,0.67,0.65,0.21,0.09,0.86,0.65,2.12,0.33,1.16,0.47,"Neutralization IC50, H3-Pa99 [24]: 4.36 mg/L; Neutralization IC50, H3-WI05 [25]: 1.19 mg/L; Neutralization IC50, H6-AB85 [21]: 0.26 mg/L; Neutralization IC50, H1-NJ76 [22]: 0.11 mg/L; Neutralizing activity IC50, swine-origin A/Minnesota/11/2010 [23]: 1.4 mg/L and 2.3 mg/L"
B3,,,,,,,,,,,,,,,,,,,,,"Neutralization IC50, H1-BJ95 [26]: 10.6 mg/L; Neutralization IC50, H3-Vic75 [27]: 3.83 mg/L; Neutralization IC50, H3-Syd97 [28]: > 50 mg/L; Neutralization IC50, H3-Pa99 [29]: > 50 mg/L; Neutralization IC50, H1-FM47 [30]: 1.37 mg/L; Neutralization IC50, H6-HK97 [31]: 2.97 mg/L; Neutralization IC50, H1-Ncal99 [32]: 2.06 mg/L; Neutralization IC50, H3-WI05 [33]: > 50 mg/L; Neutralization IC50, H1-Kaw86 [34]: 2.11 mg/L; Neutralization IC50, H9-HK97 [35]: 26.4 mg/L; Neutralization IC50, H3-HK68 [36]: 2.82 mg/L; Neutralization IC50, H5-HK03 [37]: 1.82 mg/L; Neutralization IC50, H1-TX91 [38]: 0.7 mg/L; Neutralization IC50, H7-BC04 [39]: 14.7 mg/L; Neutralization IC50, H2-MO06 [40]: 2.62 mg/L; Neutralization IC50, H5-VM04 [41]: 3.9 mg/L; Neutralization IC50, H7-NLD03 [42]: 12.8 mg/L; Neutralization IC50, H3-Perth09 [43]: > 50 mg/L; Neutralization IC50, H3-Wy03 [44]: > 50 mg/L; Neutralization IC50, H1-NJ76 [45]: 2.26 mg/L"
